{
  "source": "patent US5618790A",
  "about": "“Protease mediated drug delivery system” (Queen's University at Kingston, priority 1994, dated 1997)",
  "key": {"[1]": {"experiment": "Solubility of the purified compound", "format": "physicochemical", "source_text": "The purified compound was a purple-red powder that was quite soluble in water in neutral pH, in isotonic saline for injection (U.S.P.), and in fresh heparinized human blood and plasma. Aqueous solutions were strongly fluorescent when exposed to 410 nm light."}, "Clostridium perfringens": {"tested_on": "Clostridium perfringens", "settings": "mouse, in vivo, 20 mg/kg"}, "[2]": {"experiment": "Toxicity after intraperitoneal injection into mice", "format": "in vivo", "settings": "intraperitoneally, dosages up to 20 mg/kg body weight", "experimental": "The porphyrin compound of Example 1 was injected intraperitoneally into mice at dosages up to 20 mg/kg body weight."}, "[3]": {"experiment": "Fluorescence in heparinized whole blood and plasma", "format": "in vitro ADME", "settings": "heparinized whole blood and plasma samples; spectrophotofluorometer", "experimental": "Aliquots of the porphyrin compound of Example 1 were added to heparinized whole blood and plasma samples which were then examined by spectrophotofluorometer."}},
  "note": "Starred links: 1 amine or outer side, 2 acyl side, 3 side chain; linkers in the order of their positions; H or OH if unused. Positions of bridges follow the written chain, without caps; N, C: chain ends. Residues, ends and D or L forms follow the SMILES beside them. Chains are numbered I, II in the order given. X1 = CCC1=C(C)c2cc3[nH]c(cc4nc(cc5[nH]c(cc1n2)c(C)c5CCC(=O)[*:1])C(CCC(=O)[*:2])=C4C)c(C)c3CC",
  "data": [
    {"smiles": "CCC1=C(C)c2cc3[nH]c(cc4nc(cc5[nH]c(cc1n2)c(C)c5CCC(=O)NCC(=O)N1CCC[C@H]1C(=O)N[C@@H](CC(C)C)C(=O)NCC(=O)N1CCC[C@H]1C(=O)N[C@@H](C)C(=O)N[C@@H](CCCCN)C(=O)N[C@@H](CCCCN)C(=O)N[C@@H](CCCCN)C(=O)N[C@@H](CCCCN)C(=O)O)C(CCC(=O)NCC(=O)N1CCC[C@H]1C(=O)N[C@@H](CC(C)C)C(=O)NCC(=O)N1CCC[C@H]1C(=O)N[C@@H](C)C(=O)N[C@@H](CCCCN)C(=O)N[C@@H](CCCCN)C(=O)N[C@@H](CCCCN)C(=O)N[C@@H](CCCCN)C(=O)O)=C4C)c(C)c3CC", "note": "[porphyrin compound of Example 1, mesoporphyrin IX (Gly--Pro--Leu--Gly--Pro--Ala--Lys--Lys--Lys--Lys)2] (I: GPLGPAKKKK-OH / II: GPLGPAKKKK-OH; linker I:N-II:N via X1)", "values": [
      {"measurement": "solubility", "setting": "[1]; fresh heparinized human blood and plasma", "result": "quite soluble"},
      {"measurement": "solubility", "setting": "[1]; isotonic saline for injection (U.S.P.)", "result": "quite soluble"},
      {"measurement": "solubility", "setting": "[1]; water in neutral pH", "result": "quite soluble"},
      {"measurement": "increase of porphyrin fluorescence relative to the background fluorescence (factor)", "setting": "Clostridium perfringens", "result": "three"},
      {"measurement": "toxic effects", "setting": "[2]", "result": "No toxic effects were observed"},
      {"measurement": "effect on fluorescence intensity (stability of the collagenase sensitive peptide)", "setting": "[3]", "result": "No effect on fluorescence intensity"}
    ]}
  ]
}
